Experimental data from US20210322404A1, “FGFR REGULATION FOR THE TREATMENT OF VIRAL INFECTIONS” (ETH ZURICH, priority 2016, published 2021).

Assays:
HSV-1 = HSV-1 infection of HaCaT cells, virus load; type: cell-based, Herpes Simplex Virus type 1
Method: FIGS. 5A-C relate to HaCaT cells infected with HSV-1 (MOI=0.5) after overnight serum starvation, either alone or in combination with FGF7 (10 ng/ml) or IFNα (1000U/ml). 24 h after infection, virus load was determined by qPCR for the HSV-1 Glycoprotein B (Glyc-B) gene relative to the human β-actin gene (A) or visualized by immunofluorescence staining for HSV-1 Glycoprotein D (Glyc-D) (red) (B). The Glyc-B/β-actin gene ratio in HSV-1 infected cells was set to 1. Cell nuclei were stained with DAPI (blue). Magnification bar: 200 μm. (C) Transmission microscopy images of HaCaT cells taken 48 h after HSV-1 infection. […] Magnification bar: 80 μm. Representative data out of four experiments are shown.
FIGS. 5 D & E relate to overnight-starved HaCaT cells infected with HSV-1 (MOI=0.5) alone or in combination with IFNα (1000 U/ml), IFNα and FGF7 (10 ng/ml) (D); or FGF7 at different concentrations (E).
FIG. 5F pertains to serum-starved HaCaT cells that were infected with HSV-1 (MOI 0.5-1). After 4 h, infected cells were washed with PBS, followed by addition of fresh serum-free culture medium containing FGF7 (10 ng/ml).
FIGS. 5G-K pertains to overnight-starved HaCaT cells infected with HSV-1 (MOI=0.5) alone or in combination with FGF7, which was added at the indicated time points. 12 h after infection, cells were analyzed for Glyc-B DNA (H) and, RSAD2 and IRF7 mRNA levels by qPCR/qRT-PCR (I) or for ISG protein levels by western blotting (K). Vinculin was used as loading control.
FIGS. 7A-C relate to serum-starved HaCaT cells that were infected with HSV-1 in the presence or absence of FGF7 (10 ng/ml), NSC23766 (20 μM), the FGFR kinase inhibitors AZD4547 (1 μM) and BGJ398 (3.5 μM) (A) or IFNα (1000 U/ml) (B). […] Magnification bar: 500 μm. The Glyc-D positive area was quantified using digital pixel measurements (C, right). A representative out of two experiments is shown.
Frozen sections from mouse back skin were fixed with cold methanol, and unspecific binding sites were blocked with PBS/2% bovine serum albumin (BSA) (Sigma)/1% fish skin gelatin (Sigma)/0.05% Triton X-100 (Carl Roth GmbH, Karlsruhe, Germany) for 2 h at room temperature. Samples were then incubated overnight at 4° C. with anti-IRF7 or anti-K14 antibodies diluted in the same buffer. After three washes with 1×PBS/0.1% Tween 20 (Carl Roth GmbH), slides were incubated at room temperature (RT) for 4 h with secondary antibodies (AF555-conjugated anti-rabbit IgG and AF488-conjugated anti-mouse IgG) and DAPI (4′,6-diamidino-2-phenylindole dihydrochloride) (Sigma) as counter-stain, washed again and mounted with Mowiol (Hoechst, Frankfurt, Germany). Stained sections were photographed with a Leica SP1-2 confocal microscope equipped with a 63×0.6-1.32 NA (Iris) PL Apo Oil objective. For data acquisition the Leica Confocal Software (Leica, Wetzlar, Germany) was used. For immunofluorescence staining of cultured cells, they were washed with PBS and either fixed for 5 min with cold methanol for staining with antibodies against ZO-1 and IRF7, or with 4% paraformaldehyde (PFA) (Sigma) for 20 min at RT for Glyc-D staining. PFA-fixed cells were then incubated for 10 min with 0.5% Triton X-100 in PBS. After 1 h blocking in PBS containing 2% BSA, cells were stained with the primary antibodies for 1 h in the same blocking buffer. After three washes with PBS, cells were incubated with the secondary antibodies (AF555-conjugated anti-mouse IgG, AF488-conjugated anti-mouse IgG and AF555-conjugated anti-rabbit IgG) and DAPI.

[1] = tested on: interferon-stimulated response element (ISRE); test: ISRE luciferase reporter assay in immortalized mouse keratinocytes; type: cell-based; details: FGF7 10 ng/ml and/or IFNα 1000 U/ml, 12 h
Method: FIG. 3C pertains to immortalized mouse keratinocytes that were co-transfected with TK-Renilla and pGL4.45[luc2P/ISRE/Hygro] plasmids, starved in serum-free medium and then treated with FGF7 (10 ng/ml) and/or IFNα (1000 U/ml) for 12 h. Firefly luciferase activity was determined in cell lysates and normalized to Renilla luciferase activity (transfection control). The mean value in vehicle-treated cells (CTRL) was set to 1.
Mouse keratinocytes and HEK 293 cells were transfected with the expression vector for TK-Renilla and the expression vector pGL4.45[luc2P/ISRE/Hygro] (Promega). The latter contains five copies of an ISRE that drives expression of the luciferase reporter gene. Cells were seeded into 12-well plates, cultured for 24 h, and transfected using Lipofectamine 2000 […]. They were then starved in serum-free medium, treated with FGF7 (10 ng/ml) and/or IFNα (1000 U/ml) for 12 h, lysed and analyzed using a dual-luciferase assay system (Promega) as described by the manufacturer. Relative light units were measured in a GloMax 96 microplate luminometer with dual injectors (Promega).

[2] = Active RAC1 detection after FGF7 treatment; type: cell-based, human; details: HaCaT cells, FGF7 10 ng/ml, 10 min
Method: FIG. 4D pertains to mouse primary keratinocytes (left panel) or HaCaT cells (right panel), which had been treated with FGF7 (10 ng/ml) or vehicle for 10 min and analyzed for active RAC1 using the Active RAC1 detection kit (Cell Signaling). Activation of FGFR signaling under these conditions was verified by phosphorylation of ERK1/2 (p42/44).

LCMV = type: cell-based, Lymphocytic Choriomeningitis Virus; details: HaCaT, LCMV MOI 0.05 or 0.2

B1: FGF7: recombinant human FGF7, the classical ligand of FGFR2b (protein, UniProt P21781 32-194, looked up)
Fibroblast growth factor 7: CNDMTPEQMATNVNCSSPERHTRSYDYMEGGDIRVRRLFCRTQWYLRIDKRGKVKGTQEMKNNYNIMEIRTVAVGIVAIKGVESEFYLAMNKEGKLYAKKECNEDCNFKELILENHYNTYASAKWTHNGGEMFVALNQKGIPVRGKKTKKEQKTAHFLPMAIT
With B1 the “viral DNA, FGF7 given after removal of the virus” value (HSV-1; HaCaT infected 4 h, virus removed, FGF7 10 ng/ml for 8 h) was “A strong increase in viral DNA”, the “appearance of HSV-1 infected cells (transmission microscopy)” value (HSV-1; HaCaT, 48 h after infection) was “completely detached” and the “IFNα-mediated reduction in viral DNA” value (HSV-1; HaCaT, HSV-1, IFNα 1000 U/ml and FGF7 10 ng/ml) was “partially reverted”. The “levels of viral DNA at different FGF7 concentrations” value (HSV-1; HaCaT, HSV-1 MOI=0.5) was “induced the levels of viral DNA in a dose-dependent manner”, the “HSV-1 glycoprotein D (Glyc-D) immunofluorescence staining” value (HSV-1; HaCaT, HSV-1 MOI=0.5, FGF7 10 ng/ml) was “increased strongly” and the “viral glycoprotein B (Glyc-B) DNA” value (HSV-1; HaCaT, HSV-1 MOI=0.5, FGF7 10 ng/ml or IFNα 1000 U/ml) was “A strong increase in viral DNA”. For the same molecule, the “HSV-1 replication, FGF7 present only for 4h” value (HSV-1; HaCaT, analysis 12 h after infection) was “no longer promoted”, the “HSV-1 replication, FGF7 added with the virus or 2h or 4h post infection” value (HSV-1; HaCaT, exposed to FGF7 for 12h, 10h or 8h) was “strongly promoted HSV-1 replication” and the ISRE-driven luciferase activity [1] was “counteracted”. For the same molecule, the “active RAC1” value [2] was “activated RAC1” and the “expression levels of LCMV nucleoprotein (NP) / viral replication” value (LCMV) was “strongly increased”.
